# Assay results from PMC8999790, “The Transition of Photoreceptor Guanylate Cyclase Type 1 to the Active State” (International Journal of Molecular Sciences, 2022).
# What was measured:
# Type in all cases: biochemical, Homo sapiens
# [1] = substrate: Nc1nc2c(ncn2[C@@H]2O[C@H](COP(=O)(O)OP(=O)(O)OP(=O)(O)O)[C@@H](O)[C@H]2O)c(=O)[nH]1; test: cells, lysate or membranes; conditions: Mg-GTP, pH 7.2, 30 °C, half-maximal saturation
# [2] = substrate: Nc1nc2c(ncn2[C@@H]2O[C@H](COP(=O)(O)OP(=O)(O)OP(=O)(O)O)[C@@H](O)[C@H]2O)c(=O)[nH]1; test: cGMP formation by HPLC in HEK293 membranes, Hill fit; conditions: Mg-GTP, 5 uM GCAP1, <=10 nM free Ca2+ (2 mM EGTA), pH 7.2, 30 °C, half-maximal saturation, Hill h 1.75
# Description: cGMP formation by HPLC in HEK293 membranes, Hill fit on human GC-E + GCAP1
# [3] = substrate: Nc1nc2c(ncn2[C@@H]2O[C@H](COP(=O)(O)OP(=O)(O)OP(=O)(O)O)[C@@H](O)[C@H]2O)c(=O)[nH]1; test: as above; conditions: Mg-GTP, 5 uM GCAP2, <=10 nM free Ca2+ (2 mM EGTA), pH 7.2, 30 °C, half-maximal saturation, Hill h 1.76
# Description: cGMP formation by HPLC in HEK293 membranes, Hill fit on human GC-E + GCAP2
# [4] = substrate: Nc1nc2c(ncn2[C@@H]2O[C@H](COP(=O)(O)OP(=O)(O)OP(=O)(O)O)[C@@H](O)[C@H]2O)c(=O)[nH]1; test: as above; conditions: Mg-GTP, no GCAPs, <=10 nM free Ca2+ (2 mM EGTA), pH 7.2, 30 °C, half-maximal saturation, Hill h 1.58
# Description: cGMP formation by HPLC in HEK293 membranes, Hill fit on human GC-E (no GCAPs)
# [5] = 5 uM GCAP1, <=10 nM free Ca2+ (2 mM EGTA), Hill h 1.75, apparent KM
# [6] = 5 uM GCAP2, <=10 nM free Ca2+ (2 mM EGTA), Hill h 1.76, apparent KM
# [7] = no GCAPs, <=10 nM free Ca2+ (2 mM EGTA), Hill h 1.58, apparent KM
protein,measurement,setting,value
"human GC-E + GCAP1 (Homo sapiens; V902L) (protein, full-length GC-E transiently expressed in HEK293, membrane suspension) AVFTVGVLGPWACDPIFSRARPDLAARLAAARLNRDPGLAGGPRFEVALLPEPCRTPGSLGAVSSALARVSGLVGPVNPAACRPAELLAEEAGIALVPWGCPWTQAEGTTAPAVTPAADALYALLRAFGWARVALVTAPQDLWVEAGRSLSTALRARGLPVASVTSMEPLDLSGAREALRKVRDGPRVTAVIMVMHSVLLGGEEQRYLLEAAEELGLTDGSLVFLPFDTIHYALSPGPEALAALANSSQLRRAHDAVLTLTRHCPSEGSVLDSLRRAQERRELPSDLNLQQVSPLFGTIYDAVFLLARGVAEARAAAGGRWVSGAAVARHIRDAQVPGFCGDLGGDEEPPFVLLDTDAAGDRLFATYMLDPARGSFLSAGTRMHFPRGGSAPGPDPSCWFDPNNICGGGLEPGLVFLGFLLVVGMGLAGAFLAHYVRHRLLHMQMVSGPNKIILTVDDITFLHPHGGTSRKVAQGSRSSLGARSMSDIRSGPSQHLDSPNIGVYEGDRVWLKKFPGDQHIAIRPATKTAFSKLQELRHENVALYLGLFLARGAEGPAALWEGNLAVVSEHCTRGSLQDLLAQREIKLDWMFKSSLLLDLIKGIRYLHHRGVAHGRLKSRNCIVDGRFVLKITDHGHGRLLEAQKVLPEPPRAEDQLWTAPELLRDPALERRGTLAGDVFSLAIIMQEVVCRSAPYAMLELTPEEVVQRVRSPPPLCRPLVSMDQAPVECILLMKQCWAEQPELRPSMDHTFDLFKNINKGRKTNIIDSMLRMLEQYSSNLEDLIRERTEELELEKQKTDRLLTQMLPPSVAEALKTGTPVEPEYFEQVTLYFSDIVGFTTISAMSEPIEVLDLLNDLYTLFDAIIGSHDVYKVETIGDAYMVASGLPQRNGQRHAAEIANMSLDILSAVGTFRMRHMPEVPVRIRIGLHSGPCVAGVVGLTMPRYCLFGDTVNTASRMESTGLPYRIHVNLSTVGILRALDSGYQVELRGRTELKGKGAEDTFWLVGRRGFNKPIPKPPDLQPGSSNHGISLQEIPPERRRKLEKARPGQFS",Km,[1]; [5],200 µM
same,kcat/Km,[1]; [5],4000 M⁻¹ s⁻¹
same,K0.5,[2],0.20 mM
same,kcat/Km,[2],4000 M⁻¹ s⁻¹
"human GC-E + GCAP2 (Homo sapiens; V902L) (protein, full-length GC-E transiently expressed in HEK293, membrane suspension) AVFTVGVLGPWACDPIFSRARPDLAARLAAARLNRDPGLAGGPRFEVALLPEPCRTPGSLGAVSSALARVSGLVGPVNPAACRPAELLAEEAGIALVPWGCPWTQAEGTTAPAVTPAADALYALLRAFGWARVALVTAPQDLWVEAGRSLSTALRARGLPVASVTSMEPLDLSGAREALRKVRDGPRVTAVIMVMHSVLLGGEEQRYLLEAAEELGLTDGSLVFLPFDTIHYALSPGPEALAALANSSQLRRAHDAVLTLTRHCPSEGSVLDSLRRAQERRELPSDLNLQQVSPLFGTIYDAVFLLARGVAEARAAAGGRWVSGAAVARHIRDAQVPGFCGDLGGDEEPPFVLLDTDAAGDRLFATYMLDPARGSFLSAGTRMHFPRGGSAPGPDPSCWFDPNNICGGGLEPGLVFLGFLLVVGMGLAGAFLAHYVRHRLLHMQMVSGPNKIILTVDDITFLHPHGGTSRKVAQGSRSSLGARSMSDIRSGPSQHLDSPNIGVYEGDRVWLKKFPGDQHIAIRPATKTAFSKLQELRHENVALYLGLFLARGAEGPAALWEGNLAVVSEHCTRGSLQDLLAQREIKLDWMFKSSLLLDLIKGIRYLHHRGVAHGRLKSRNCIVDGRFVLKITDHGHGRLLEAQKVLPEPPRAEDQLWTAPELLRDPALERRGTLAGDVFSLAIIMQEVVCRSAPYAMLELTPEEVVQRVRSPPPLCRPLVSMDQAPVECILLMKQCWAEQPELRPSMDHTFDLFKNINKGRKTNIIDSMLRMLEQYSSNLEDLIRERTEELELEKQKTDRLLTQMLPPSVAEALKTGTPVEPEYFEQVTLYFSDIVGFTTISAMSEPIEVLDLLNDLYTLFDAIIGSHDVYKVETIGDAYMVASGLPQRNGQRHAAEIANMSLDILSAVGTFRMRHMPEVPVRIRIGLHSGPCVAGVVGLTMPRYCLFGDTVNTASRMESTGLPYRIHVNLSTVGILRALDSGYQVELRGRTELKGKGAEDTFWLVGRRGFNKPIPKPPDLQPGSSNHGISLQEIPPERRRKLEKARPGQFS",Km,[1]; [6],310 µM
same,kcat/Km,[1]; [6],2200 M⁻¹ s⁻¹
same,K0.5,[3],0.36 mM
same,kcat/Km,[3],2200 M⁻¹ s⁻¹
"human GC-E (no GCAPs) (Homo sapiens; V902L) (protein, full-length GC-E transiently expressed in HEK293, membrane suspension; no GCAP added) AVFTVGVLGPWACDPIFSRARPDLAARLAAARLNRDPGLAGGPRFEVALLPEPCRTPGSLGAVSSALARVSGLVGPVNPAACRPAELLAEEAGIALVPWGCPWTQAEGTTAPAVTPAADALYALLRAFGWARVALVTAPQDLWVEAGRSLSTALRARGLPVASVTSMEPLDLSGAREALRKVRDGPRVTAVIMVMHSVLLGGEEQRYLLEAAEELGLTDGSLVFLPFDTIHYALSPGPEALAALANSSQLRRAHDAVLTLTRHCPSEGSVLDSLRRAQERRELPSDLNLQQVSPLFGTIYDAVFLLARGVAEARAAAGGRWVSGAAVARHIRDAQVPGFCGDLGGDEEPPFVLLDTDAAGDRLFATYMLDPARGSFLSAGTRMHFPRGGSAPGPDPSCWFDPNNICGGGLEPGLVFLGFLLVVGMGLAGAFLAHYVRHRLLHMQMVSGPNKIILTVDDITFLHPHGGTSRKVAQGSRSSLGARSMSDIRSGPSQHLDSPNIGVYEGDRVWLKKFPGDQHIAIRPATKTAFSKLQELRHENVALYLGLFLARGAEGPAALWEGNLAVVSEHCTRGSLQDLLAQREIKLDWMFKSSLLLDLIKGIRYLHHRGVAHGRLKSRNCIVDGRFVLKITDHGHGRLLEAQKVLPEPPRAEDQLWTAPELLRDPALERRGTLAGDVFSLAIIMQEVVCRSAPYAMLELTPEEVVQRVRSPPPLCRPLVSMDQAPVECILLMKQCWAEQPELRPSMDHTFDLFKNINKGRKTNIIDSMLRMLEQYSSNLEDLIRERTEELELEKQKTDRLLTQMLPPSVAEALKTGTPVEPEYFEQVTLYFSDIVGFTTISAMSEPIEVLDLLNDLYTLFDAIIGSHDVYKVETIGDAYMVASGLPQRNGQRHAAEIANMSLDILSAVGTFRMRHMPEVPVRIRIGLHSGPCVAGVVGLTMPRYCLFGDTVNTASRMESTGLPYRIHVNLSTVGILRALDSGYQVELRGRTELKGKGAEDTFWLVGRRGFNKPIPKPPDLQPGSSNHGISLQEIPPERRRKLEKARPGQFS",Km,[1]; [7],340 µM
same,kcat/Km,[1]; [7],2100 M⁻¹ s⁻¹
same,K0.5,[4],0.37 mM
same,kcat/Km,[4],2100 M⁻¹ s⁻¹
